Patent US20180044415A1 (AbbVie / Abbott, published 2018)
Where a chain is given by its changes, count along the chain named.

T1: DLL3 extracellular domain (amino acids 27-466) displayed on yeast (human, UniProt Q9NYJ7 27-466)
T1 construct: Yeast surface display construct with HA tag; also called DLL3 ECD; wild type DLL3 ECD
T1 sequence: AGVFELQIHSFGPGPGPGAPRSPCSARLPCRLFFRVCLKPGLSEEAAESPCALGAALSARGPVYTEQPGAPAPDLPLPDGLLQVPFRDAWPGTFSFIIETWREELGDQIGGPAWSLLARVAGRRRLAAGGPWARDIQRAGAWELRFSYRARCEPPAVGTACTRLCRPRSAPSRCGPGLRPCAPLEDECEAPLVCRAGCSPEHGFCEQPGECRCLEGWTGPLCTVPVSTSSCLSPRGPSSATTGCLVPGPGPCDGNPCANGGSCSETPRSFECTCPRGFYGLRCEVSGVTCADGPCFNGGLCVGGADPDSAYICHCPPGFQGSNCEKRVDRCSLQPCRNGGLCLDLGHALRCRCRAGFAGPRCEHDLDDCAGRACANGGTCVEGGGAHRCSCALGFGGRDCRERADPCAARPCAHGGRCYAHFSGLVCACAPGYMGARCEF

T2: human DLL3 (immobilized human DLL3 or h293-hDLL3 cells) (human, UniProt Q9NYJ7 27-492, limits assumed)
T2 construct: the sentence says 'immobilized human DLL3 or h293-hDLL3 cells'
T2 sequence: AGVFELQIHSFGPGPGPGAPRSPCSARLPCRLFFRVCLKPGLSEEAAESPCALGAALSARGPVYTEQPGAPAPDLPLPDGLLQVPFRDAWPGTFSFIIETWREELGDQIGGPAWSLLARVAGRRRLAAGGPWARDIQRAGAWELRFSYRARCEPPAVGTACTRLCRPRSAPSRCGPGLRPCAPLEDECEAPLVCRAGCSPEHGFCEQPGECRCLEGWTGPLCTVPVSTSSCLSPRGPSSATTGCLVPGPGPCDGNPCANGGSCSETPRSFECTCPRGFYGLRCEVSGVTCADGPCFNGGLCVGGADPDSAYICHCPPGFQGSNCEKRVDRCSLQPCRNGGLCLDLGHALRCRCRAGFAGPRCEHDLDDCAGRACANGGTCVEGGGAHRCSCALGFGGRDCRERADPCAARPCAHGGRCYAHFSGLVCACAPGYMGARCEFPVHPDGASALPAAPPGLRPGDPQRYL

B1: SC16.34 (antibody, V domains shown)
VH: QIQLVQSGPELKRPGETVKISCKASGYTFTNYGMNWVKQAPGKGLKWMGWINTYTGDPTYADDFKGRFAFSLETSASTAYLQINNLKNEDTATYFCARIGGNSPSDYWGQGTSLTVSS
VL: SIVMTQTPKFLLVSAGDRVTITCKASQSVSNDVAWYQQKPGQSPKLLIYYASNRYSGVPDRFTGSGYGTDFTFTISTVQAEDLAVYFCQQDYSSPWTFGGGTKLEIK
notes: murine mAb; variable regions only
B2: SC16.56 (antibody, V domains shown)
VH: B1 VH with R13K, G49A, D57E, Y80S, N84I, G101D, N102S, S113T
VL: B1 VL with A34V, S56T, T63A, T72S, S93T, K107R
notes: as for B1
B3: SC16.23 (antibody, V domains shown)
VH: QVTLKESGPGILQPSQTLSLTCSFSGFSLSTSNTGIGWIRQPSGTGLEWLAHIWWNDDKYYNPSLKSRLTISKETSNNQVFLKITNVDTADTASYFCVQIGRDYSNYAWYFDVWGAGTTVTVSS
VL: QIVLTQSPAIMSASPGEKVTLTCSASSSVSSRYLYWYQQKPGSSPKLWIYSTSNLASGVPARFSGSGSGTSYSLIISSMEAEDAASYFCHQWSNYPLTFGAGTKLELK
notes: as for B1
B4: SC16.137 (antibody, V domains shown)
VH: EVQLVESGGDLVKPGGSLKLSCAASGFTFSSYGMSWVRQTPDKRLEWVATISSGGSYTYYPDSVKGRFTISRDNAKNTLYLQMSSLKSEDTAMYYCARRRADAMDYWGQGTSVTVSS
VL: QIVLTQSPAIMSASLGEEITLTCSASSSVSYMHWYQQKSGTSPKLLIYSTSNLASGVPSRFSGSGSGTFYSLTISSVEAEDAADYYCHQWSSYHTFGGGTKLEIKR
notes: as for B1
B5: SC16.141 (antibody, V domains shown)
VH: QVQLKQSGPGLVAPSQSLFITCTVSGFSLTSYEINWVRQPPGKGLEWLGVIWTGGSTNYNSALISRLSISKDNSKSLVFLKMNSLQTDDTAIYYCVRGVYAMDYWGQGTSVTVSS
VL: DIKMTQSPSSMYASLGERVTITCKASQDINSYLSWFQQKPGKSPKTLIYRANRLVDGVPSRFSGSGSGQDYSLTISSLEYEDMGIYYCLQYDEFPFTFGSGTKLEIK
notes: as for B1
B6: SC16.140 (antibody, V domains shown)
VH: QVQLQQSGPELVRPGASVKMSCKASGYTFTSYWMHWVKQRPGQGLEWIGMIDPSNSETRLNQKFKDKATLNVDKSSNTAYMQLSSLTSEDSAVYYCAVMDYYFDYWGQGTTLTVSS
VL: DIVLTQSLASLAVSLGQRATISCRASKSVSTSGYSYMHWYQQKPGQPPKLLIYLASNLESGVPARFSGSGSGTDFTLNIHPVEDEDAATYYCQHSRELPFTFGGGTKLEIK
notes: as for B1

Biological target: T1, DLL3 extracellular domain (amino acids …)
Test: fine epitope mapping
Description: To test for binding to a particular construct, 200,000 induced yeast cells expressing the desired construct were washed twice in PBS+1 mg/mL BSA (PBSA), and incubated in 50 μL of PBSA with biotinylated anti-HA clone 3F10 (Roche Diagnostics) at 0.1 μg/mL and either 50 nM purified antibody or 1:2 dilution of unpurified supernatant from hybridomas cultured for 7 days. Cells were incubated for 90 minutes on ice, followed by two washes in PBSA. Cells were then incubated in 50 μL PBSA with the appropriate secondary antibodies: for murine antibodies, Alexa 488 conjugated streptavidin, and Alexa 647 conjugated goat anti mouse (Life Technologies) were added at 1 μg/mL each; and for humanized or chimeric antibodies, Alexa 647 conjugated streptavidin (Life Technologies) and R-phycoerythrin conjugated goat anti human (Jackson Immunoresearch) were added at 1 μg/mL each. After a twenty minute incubation on ice, cells were washed twice with PBSA and analyzed on a FACS Canto II. Antibodies that bound to DLL3-DLL1 chimera were designated as binding to the N-terminal region+DSL. Antibodies that bound specifically to an epitope present on a particular EGF-like domain were designated as binding to its respective domain (FIG. 2.)
Alternatively, a yeast display method (Chao et al., 2007, PMID: 17406305) was used to map the epitopes of selected antibodies. Libraries of DLL3 ECD mutants were generated with error prone PCR using nucleotide analogues 8-oxo-2′deoxyguanosine-5′-triphosphate and 2′-deoxy-p-nucleoside-5′triphosphate (TriLink Bio) for a target mutagenesis rate of one amino acid mutation per clone. These were transformed into a yeast display format. Using the technique described above for domain-level mapping, the library was stained for HA and antibody binding at 50 nM. […] These clones were re-grown, and subjected to another round of FACS sorting for loss of binding to the target antibody. Using the Zymoprep Yeast Plasmid Miniprep kit (Zymo Research), individual ECD clones were isolated and sequenced. […]

| binding result | Binder |
| --- | --- |
| binds | B1 |
| binds | B2 |
| binds | B3 |

Biological target: T2, human DLL3 (immobilized human DLL3 or …)
Test: hybridoma screening on immobilized human DLL3 or on h293-hDLL3 cells

| binding result | Binder |
| --- | --- |
| binds | B4 |
| binds | B5 |
| binds | B1 |
| binds | B2 |
| binds | B3 |
| binds | B6 |
